# In US20050152896A1 (Amgen, published 2005):
# Changes are numbered by the printed parent chain.
# T1: peptide of the 14 C-terminal amino acids of human galanin (human, UniProt P22466 49-62)
# T1 construct: domain: 14 C-terminal amino acids of human galanin
# T1 peptide (looked up): GNHRSFSDKNGLTS
# T2: human galanin (mature, processed form) (human, UniProt P22466 33-62, 125I-labelled in the filtration and immunoprecipitation assays; biotinylated in the IGEN assay and in the BIAcore assay of Table 4)
# T2 construct: mature; the assays used the mature peptide; also called biotinylated galanin
# T2 peptide (looked up): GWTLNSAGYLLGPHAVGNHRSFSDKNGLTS
# T3: murine galanin (mature, processed form) (murine, UniProt P47212 33-61, not fully specified)
# T3 construct: mature
# T3 peptide (looked up): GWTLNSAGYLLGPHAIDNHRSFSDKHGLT
# B1: Fab fragment of murine antibody 5B4 (Fab, V domains shown)
# VH: EVQLQQSGAELVRPGALVKLSCKASGFNIEDYYMHWVRQRPEEGLEWIGRIDPENGNTIYDPKFQGKASITADTSSNTAYLQLSSLTSEDTAVYYCVRGYVDWGQGTLVTVSA
# VL: DVLMTQTPLSLPVSLGDQASISCRSSQSIVHSDGDTYLEWYLQKAGQSPKLLIYKVSNRFSGVPDRFSGSGSGTDFTLKISRVEAEDLGLYYCFQGSHVPYTFGGGTKLEIKR
# notes: Papain Fab of the hybridoma antibody; also called 5B4 Fab
# B2: Fab fragment of murine antibody 4B3 (Fab, V domains shown)
# VH: EIQLQQSEAELVKPGASVRLSCATSGFNIKDYYIHWVKQTTEQGLEWIGRIDPEDGETEYAPKFQGKATIAADTSSNTAYLLLNSLSSEDTAVYYCTRGYASWGQGTTLTVSS
# VL: B1 VL with P12S, I29F, D35N, A45S, S81N, L90V
# notes: Papain Fab of the hybridoma antibody; also called 4B3 Fab
# B3: Fab fragment of murine antibody 1D7 (Fab, V domains shown)
# VH: B2 VH
# VL: B1 VL with P12S, I29F, D35N, A45S, S81N, L90V
# notes: Papain Fab of the hybridoma antibody; also called 1D7 Fab
# B4: humanized 5B4 IgG1: light chain zu5B4 v04 with heavy chain zu5B4 v04 (antibody, V domains shown)
# VH: EVQLVQSGAEVKKPGATVKISCKVSGFNIEDYYMHWVQQAPGKGLEWMGRIDPENGNTIYDPKFQGRVTITADTSTNTAYLDLSSLRSEDTAVYYCARGYVDWGQGTLVTVSS
# VL: DVVMTQSPLSLPVTLGQPASISCRSSQSIVHSDGDTYLEWYLQRPGQSPMLLIYKVSNRFSGVPDRFSGSGSGTDFTLKITRVEAEDVGVYYCFQGSHVPYTFGGGTKVEIKR
# notes: also called P1A7 (as IgG1); humanized 5B4-v4
# B5: humanized 5B4 IgG1: light chain zu5B4 v04 with heavy chain zu5B4 v13 (antibody, V domains shown)
# VH: B4 VH with M48I, L81M
# VL: B4 VL
# notes: Human IgG1 / human kappa, expressed in E5 cells; VH of humanized 5B4-v13, VL of humanized 5B4-v4
# B6: humanized 5B4 IgG1: light chain zu5B4 v13 with heavy chain zu5B4 v04 (antibody, V domains shown)
# VH: B4 VH
# VL: B4 VL with L42Q
# notes: Human IgG1 / human kappa, expressed in E5 cells; VH of humanized 5B4-v4, VL of humanized 5B4-v13
# B7: humanized 5B4 IgG1: light chain zu5B4 v04 with heavy chain zu5B4 v11 (antibody, V domains shown)
# VH: B4 VH with L81M
# VL: B4 VL
# notes: Human IgG1 / human kappa, expressed in E5 cells; VH of humanized 5B4-v11, VL of humanized 5B4-v4
# B8: humanized 5B4 IgG1: light chain zu5B4 v05 with heavy chain zu5B4 v04 (antibody, V domains shown)
# VH: B4 VH
# VL: B4 VL with L42Q, L51S
# notes: Human IgG1 / human kappa, expressed in E5 cells; VH of humanized 5B4-v4, VL of humanized 5B4-v5
# B9: humanized 5B4 IgG1: light chain zu5B4 v04 with heavy chain zu5B4 v12 (antibody, V domains shown)
# VH: B4 VH with V68A, N77D
# VL: B4 VL
# notes: Human IgG1 / human kappa, expressed in E5 cells; VH of humanized 5B4-v12, VL of humanized 5B4-v4
# B10: humanized 5B4 IgG1: light chain zu5B4 v04 with heavy chain zu5B4 v06 (antibody, V domains shown)
# VH: B4 VH with M48I, V68A
# VL: B4 VL
# notes: Human IgG1 / human kappa, expressed in E5 cells; VH of humanized 5B4-v6, VL of humanized 5B4-v4
# B11: murine monoclonal antibody 4B3 (antibody, mouse IgG1, V domains shown)
# VH: B2 VH
# VL: B1 VL with P12S, I29F, D35N, A45S, S81N, L90V
# notes: purified from ascites
# B12: murine monoclonal antibody 2F8 (antibody, mouse IgG1, V domains shown)
# VH: B1 VH with M34I, I70L, Y95F, V97A
# VL: B1 VL with A45P, S81I, Y92F
# B13: murine monoclonal antibody 1G12 (antibody, mouse IgG1, V domains shown)
# VH: EVQLQQSGAELVKPGASVQLSCTASGFNIKDYYIHWVQQRTEQGLEWIGRIDPEDGEIEYAPKFQDKATITADTSSNTAYLQLSSLTSEDSAVYYCTRGYASWGQGTTLTVSS
# VL: B1 VL with S28T, I29F, D35N, A45P, L90V
# notes: The legend prints 'murine 1G2' for the VH
# B14: murine monoclonal antibody 1D7 (antibody, mouse IgG1, V domains shown)
# VH: B2 VH
# VL: B1 VL with P12S, I29F, D35N, A45S, S81N, L90V
# notes: purified from ascites; also called hybridoma 1D7D1 (ATCC PTA-5650)
# B15: murine monoclonal antibody 5B4 (antibody, mouse IgG2a, V domains shown)
# VH: B1 VH
# VL: B1 VL
# notes: purified from ascites; also called hybridoma 5B4C1 (ATCC PTA-5651)
# B16: murine monoclonal antibody 2E11 (antibody, V domains shown)
# VH: EIQLQQSGAEVMKPGASVKISCKATGYTFSNYWIEWIKQRPGHGLEWIGEILPGSESTKYNEKFKGKATFTTDTSSNTAYMQLSSLTSEDSAVYYCATFYGGFDYWGQGTTLTVSS
# VL: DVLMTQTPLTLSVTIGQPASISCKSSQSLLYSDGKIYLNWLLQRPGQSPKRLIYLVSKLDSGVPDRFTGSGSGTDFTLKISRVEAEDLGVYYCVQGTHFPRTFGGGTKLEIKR
# notes: the legend is followed
# B17: murine monoclonal antibody 2H9 (antibody, mouse IgG1, V domains shown)
# VH: B2 VH
# VL: B1 VL with P12S, I29F, D35N, A45S, S81N, L90V
# B18: murine monoclonal antibody 1A1 (antibody, V domains shown)
# VH: B1 VH with V2I, G8E, A24T, E30K, R38K, E43Q, G56D, T58S, K63N
# VL: B1 VL with A45P, Y54F, L90V
# notes: the legend is followed
# Target: T1, peptide of the 14 C-terminal amino …
# Test: co-crystal structure
row,Binder,binding result
1,B1,binds
2,B2,binds
3,B3,binds

# Target: T2, human galanin (mature, processed form)
# Test: BIAcore 3000; IgG captured by goat anti-human IgG Fc on CM5, human galanin peptide flowed; 1:1 Langmuir fit
# Description: In terms of ELISA signal, the top 17 Fab fragments consisted of various combinations of three light chains and five heavy chains. For example, the heavy variable region of Fab P1A7 was identical to the heavy variable regions of Fabs R2E9 and R2E8. The five heavy variable regions were amplified by PCR and the PCR products were subcloned into a human IgG1 heavy chain mammalian expression vector, pVE414N. The three light variable region products were amplified by PCR and were subcloned into a human kappa light chain mammalian expression vector, pDC414N. The sequences of the heavy and light chains constructs were confirmed by DNA sequencing. Fab fragment P1A7 yielded the strongest ELISA signal. To determine which heavy or light variable regions might yield the highest affinity antibody, each heavy chain was co-expressed with the P1A7 light chain, and each light chain was co-expressed with the P1A7 heavy chain. These IgG heavy and light chain combinations were expressed in […] and were purified from the cell culture medium using protein A affinity chromatography. Affinities of these purified antibodies were measured on a BIAcore 3000. Goat anti-human IgG Fc antibody immobilized on CM5 sensor chips was used to capture P1A7 and the variants. Human galanin peptide was flowed over the chip surface with captured anti galanin antibody. The binding kinetics was analyzed using the model fit of 1:1 Langmuir+local Rmax+Mass Transfer. […] Antibodies with P1A7 light chain paired with the five different heavy chains yield nearly identical dissociation constants.
Binder,Kd,koff,kon
B4,1.8 nM,0.0059 s⁻¹,3.3e+06 M⁻¹ s⁻¹
B5,1.8 nM,0.005 s⁻¹,2.8e+06 M⁻¹ s⁻¹
B6,2 nM,0.007 s⁻¹,3.5e+06 M⁻¹ s⁻¹
B7,1.7 nM,0.0056 s⁻¹,3.2e+06 M⁻¹ s⁻¹
B8,2.3 nM,0.0095 s⁻¹,4.2e+06 M⁻¹ s⁻¹
B9,1.5 nM,0.0048 s⁻¹,3.2e+06 M⁻¹ s⁻¹
B10,1.6 nM,0.0051 s⁻¹,3.2e+06 M⁻¹ s⁻¹

# Target: T3, murine galanin (mature, processed form)
# Test: epitope mapping
row,Binder,binding result
1,B11,binds
2,B12,binds
3,B13,binds
4,B14,binds
5,B15,binds
6,B16,binds

# Target: T2, human galanin (mature, processed form)
# Test: BIAcore SPR; biotinylated galanin on a streptavidin chip, MAb flowed
# Protocol: The galanin binding assay uses the ORIGEN technology (IGEN, Gaithersburg, Md.) and measures solution state binding. 0.75 μg/ml biotinylated galanin and 2 μg/ml ORI-TAG anti-mouse IgG were preincubated with serially diluted MAbs. 0.4 mg/ml streptavidin-coated Dyna beads were added, incubated, and read on an IGEN M8 Analyzer. In the plasmon surface resonance assay, biotinylated galanin was bound to a streptavidin-coated sensor chip and MAbs allowed to pass through the flow cells in order to generate on and off rates. In every assay tested, the MAbs ranked in virtually the same order.
Binder,Ka,Kd
B11,1.4e+10 M⁻¹,0.07 nM
B17,6.7e+09 M⁻¹,0.15 nM
B12,6.8e+09 M⁻¹,0.15 nM
B13,9.3e+09 M⁻¹,0.11 nM
B14,1.5e+10 M⁻¹,0.09 nM
B15,7.5e+09 M⁻¹,0.13 nM
B18,2.5e+09 M⁻¹,0.4 nM
B16,5e+08 M⁻¹,2.1 nM
